Columns and labels:
[1] = molecular target: GST-EhPKDL (Entamoeba histolytica Protein kinase D like kinase, recombinant) (Entamoeba histolytica); experiment: SEC
[2] = molecular target: EhPKDL-FITC (Entamoeba histolytica); experiment: other fluorescence titration

| Substance | stoichiometry N [1] | stoichiometry N [2] |
| --- | --- | --- |
| GST-EhPKDL (Entamoeba histolytica Protein kinase D like kinase, recombinant) (enzyme) | 2 |  |
| actin-TRITC (natural protein) |  | 1 molar ratio |
